Data as given in the supplement of paper PMC9170038.

Tested on: MS2 coat protein
Assay: apparent KD of MS2 coat protein; designed switch direction (-1 OFF switch, 1 ON switch): -1; higher = weaker reporter binding
Method in brief: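 Transcription of designed RNA switches on Illumina chips was done by stalled E. coli RNA polymerase. SNAP-549-labelled MS2 coat protein was then titrated in doubling steps from 0.7 or 1.5 nM to 3 µM, with steps of 0.8–1.5 h at the lowest and 10–20 min at the highest concentration. The per-design median over clusters of curve-fitted normalised fluorescence is reported as apparent KD.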

[1] = input ligand: microRNA oligo, concentration not stated
[2] = Eterna round: R95, input ligand: microRNA oligo, concentration not stated

## AGCUGUGGCCGAGGAUAUCUAAUAAUCUCAACCGAAAUAUAAUCGGACAUGAGGAUCACCCAUGUAGAGAAGGCGGUCUCAGCA [Eli eng2 - 067] (Eterna round: R96, puzzle: Exclusion NG 2)
[1]
  apparent KD of MS2 coat protein: 27.2 nM

## CCUGCACAUGAGGAUCACCCAUGUCAGGAUAUCUCGCCGUCGGCUUGCCGACGGUAUUAGAGAAGGGACAAGGG [JL Tixe mod 2] (puzzle: Exclusion 1)
[2]
  apparent KD of MS2 coat protein: 21.9 nM

## UAUUUAGCAAGCAGAUCCUACAUGAGGAUCACCCAUGUGCUCUGAAAUAACGCAGAAUUACUGCGAGCUCGUCUUAU [Winner reversed engineered 27] (Eterna round: R97, puzzle: Sensor, turn-off variant 1)
Input ligand: FMN 200 uM
  apparent KD of MS2 coat protein: 85.7 nM
Input ligand: none
  apparent KD of MS2 coat protein: 120 nM

## CUUGUAUAUCAGGAUAUGAUUUUAUAUAUUGGAUCAGAAGGGAUAACAUGAGGAUCACCCAUGUUGUGGAGUGA [JR_Ex6_Sub038] (Eterna round: R97, puzzle: Exclusion 6)
Input ligand: FMN 200 uM
  apparent KD of MS2 coat protein: 90.5 nM
Input ligand: none
  apparent KD of MS2 coat protein: 204 nM

## UACACUGCAUGAGGAUCAAACAUGAGGAUCACCCAUGUGUAGCAAGCUUUUUGCUCGUCUUAUAAUUAUGUAGUGUA [Electric Eye 11 - Jieux - Sensor, turn-off variant 1] (Eterna round: R97, puzzle: Sensor, turn-off variant 1)
Input ligand: FMN 200 uM
  apparent KD of MS2 coat protein: 14 nM
Input ligand: none
  apparent KD of MS2 coat protein: 12.1 nM

## GGUAGAGUGGUAGGAUAUCCGUCUGUUUCAGUCGGAGAAGGACCACAGUCACUGGGUCCUAAUAUCAUGGAGACCUGAUCUACC [pwkr exNG1 F6.12] (Eterna round: R96, puzzle: Exclusion NG 1)
Input ligand: FMN 200 uM
  apparent KD of MS2 coat protein: 2200 nM
[1]
  apparent KD of MS2 coat protein: 316 nM
Input ligand: none
  apparent KD of MS2 coat protein: 284 nM

## GGACUGCGACACAGCCAAACAAAACAUGAGGAUCACCCAUGUCAGGAUAUACCGAUGCAGCAUCUGUAGAAGGGACAGAUCCAA [Qusorave] (Eterna round: R96, puzzle: Exclusion NG 3)
Input ligand: FMN 200 uM
  apparent KD of MS2 coat protein: 80.3 nM
[1]
  apparent KD of MS2 coat protein: 45.4 nM
Input ligand: none
  apparent KD of MS2 coat protein: 85.9 nM

## UUCACAUGGACAUGAGAUCACAUGAGGAUCACCCAUGUGAAUAACAAGCUUUUUGCUCGUCUUAUGUCCAAUAAUAA [Stov1/14-C1] (Eterna round: R97, puzzle: Sensor, turn-off variant 1)
Input ligand: FMN 200 uM
  apparent KD of MS2 coat protein: 14 nM
Input ligand: none
  apparent KD of MS2 coat protein: 12.8 nM

## CAAUUCUGAGGAUAUGUGCCUCUGGACAUGAGGAUCACCCAUGUGGAGGCUGUAUGGGAGGCAGAAGGUAGAGAUC [Eternabot (L1) Solution 7] (Eterna round: R97, puzzle: Exclusion 5)
Input ligand: FMN 200 uM
  apparent KD of MS2 coat protein: 16.4 nM
Input ligand: none
  apparent KD of MS2 coat protein: 18.2 nM

## UCGCUGCGAGGAUAUACAUGAGGAUCACCCAUGUACGGGUCCGGGUUUUCGUCCAUUAGUAGAAGGCGCAGUGA [JL Laongeedie mod 1] (puzzle: Exclusion 3)
[2]
  apparent KD of MS2 coat protein: 136 nM

## ACAAGCUUAAAAGGUGAUAACAUGAGGAUCACCCAUGUUCGUCUUAUAAAAAUAAAAAUAAAAAAUAAAAAAUAAAA [Sensor V2: 61] (Eterna round: R96, puzzle: Sensor v2, turn-off variant)
Input ligand: FMN 200 uM
  apparent KD of MS2 coat protein: 23.1 nM
[1]
  apparent KD of MS2 coat protein: 114 nM
Input ligand: none
  apparent KD of MS2 coat protein: 24.2 nM

## AUCGAGAUAGGAUAUGCCCAAGUAAACAUGAGGAUCACCCAUGUGGGUCACCUCUUCACGGUAGAAGGGUUAGAUU [Eternabot (L1) Solution 90] (Eterna round: R97, puzzle: Exclusion 5)
Input ligand: FMN 200 uM
  apparent KD of MS2 coat protein: 62 nM
Input ligand: none
  apparent KD of MS2 coat protein: 81.8 nM

## CCAUCGAGUGUGAGGAUAUGCUGGUCCAUAGAUCAGCAGAAGGCACAUGAGGAUCACCCAUGUGGAGACGGUGG [Mat - Exclusion 4 - JL Mod - D78] (Eterna round: R96, puzzle: Brourd's mod of Exclusion 4)
[1]
  apparent KD of MS2 coat protein: 31 nM

## AGCUAGUCAGGAUAUUCUAAAAAUUACAUGAGGAUCACCCAUGUGAAUGGACAAGGGUGUGAAGAAGGGACUAGCG [Omei Ex5 A11] (Eterna round: R97, puzzle: Exclusion 5)
Input ligand: FMN 200 uM
  apparent KD of MS2 coat protein: 214 nM
Input ligand: none
  apparent KD of MS2 coat protein: 540 nM

## GGUGCGUCUGUGAGGAUAUGCUGGUCCUUGGCUCGGCAGAAGGCACAUGAGGAUCACCCAUGUGGUGUCGUGCC [salish99_Bmod_ex4_058] (puzzle: Brourd's mod of Exclusion 4)
[2]
  apparent KD of MS2 coat protein: 16.7 nM

## GCAAGCGAUUAGGCUCGUCUUAUAAAGAAAAGAAUGAAAACAUGAGGAUCACCCAUGUAAGUGGGAAAGUUGAAGUG [JR_SV3TOV2_Sub009] (puzzle: Sensor v3, turn-off variant 2)
Eterna round: R95, input ligand: FMN 200 uM
  apparent KD of MS2 coat protein: 267 nM
[2]
  apparent KD of MS2 coat protein: 1340 nM
Eterna round: R95, input ligand: none
  apparent KD of MS2 coat protein: 210 nM

## AAGUUCAGAGGAUAUGCCCAGCUCGACAUGAGGAUCACCCAUGUAUCCACAGAACGUACGGCAGAAGGCUGCAAUA [Eternabot (Original) Solution 9] (Eterna round: R97, puzzle: Exclusion 5)
Input ligand: FMN 200 uM
  apparent KD of MS2 coat protein: 69.4 nM
Input ligand: none
  apparent KD of MS2 coat protein: 86 nM

## AAAAGGCAGGGAGGAUAUGCUUACCUGGGUCGUCUUCAAACAUGAGGAUCACCCAUGUAGUCGACGCAGAAGGCCCUCAAAGCC [Mat - Exclusion NG 2 - Mod of JL - D58] (Eterna round: R96, puzzle: Exclusion NG 2)
Input ligand: FMN 200 uM
  apparent KD of MS2 coat protein: 39.6 nM
[1]
  apparent KD of MS2 coat protein: 21.2 nM
Input ligand: none
  apparent KD of MS2 coat protein: 22.7 nM

## GCCGUUAAGGUAGGAUAUGCUCGGUCUGUUCGUGCAGAAGGGCUGGUCGGCGACUUGAGGAUCACCCAAGUGGUCUUAUAGAAA [Mutated MS2 EX1.19] (Eterna round: R96, puzzle: Exclusion NG 1)
Input ligand: FMN 200 uM
  apparent KD of MS2 coat protein: 99.6 nM
[1]
  apparent KD of MS2 coat protein: 52.3 nM
Input ligand: none
  apparent KD of MS2 coat protein: 54.8 nM

## UAGAUGGGAGGAUAUGCGUAGAUACGGAUUCGUGUAGUGCUACAUGAGGAUCACCCAUGUAGAAGGCCCGUCUU [JL-ex2-2.28 Mayanne mod] (puzzle: Exclusion 2)
[2]
  apparent KD of MS2 coat protein: 13.9 nM

## GCACUCUUGUGAGGAUAUCGUUAAGGGACUUAACGAGAAGGUACAUGAGGAUCACCCAUGUGGAUCCUCCCGUUUGGAUCACUU [Eternabot solution 3] (Eterna round: R96, puzzle: Exclusion NG 1)
Input ligand: FMN 200 uM
  apparent KD of MS2 coat protein: 177 nM
[1]
  apparent KD of MS2 coat protein: 103 nM
Input ligand: none
  apparent KD of MS2 coat protein: 112 nM

## ACAUGAGGAUCACCCAUGUAAACAUAAUGGCUCAUGUAGAGUCAGGAUAUGCGUGGCGAACAAGCGCAGAAGGGACAAGACUGG [Deportation 25 - Jieux - Exclusion NG 3] (Eterna round: R96, puzzle: Exclusion NG 3)
Input ligand: FMN 200 uM
  apparent KD of MS2 coat protein: 30 nM
[1]
  apparent KD of MS2 coat protein: 19.6 nM
Input ligand: none
  apparent KD of MS2 coat protein: 27.2 nM

## GAGCUAUGAGGAUAUGCAUAUAUACGGAUUCGUGUAGUACUACAUGAGGAUCACCCAUGUAGAAGGCGUGGCUG [JL-ex2-2.03 mat747 mod] (puzzle: Exclusion 2)
[2]
  apparent KD of MS2 coat protein: 13.2 nM

## UGUGUGUGACAGGAUAUGCAGGUAAUGAGACGGGUAGAAGGGUCUACAUGAGGAUCACCCAUGUGGCCGGUUGG [Ex6 #62] (Eterna round: R97, puzzle: Exclusion 6)
Input ligand: FMN 200 uM
  apparent KD of MS2 coat protein: 17.7 nM
Input ligand: none
  apparent KD of MS2 coat protein: 16.4 nM

## GCGGACUGGAUCGUGAGAUCCGAGACAUGAGGAUCACCCAUGUAGGAUAUCGAUUGCUUUGCAGUCGAGAAGGGCGUGGUCCGC [JL denovo 16] (Eterna round: R96, puzzle: Exclusion NG 3)
Input ligand: FMN 200 uM
  apparent KD of MS2 coat protein: 54.6 nM
[1]
  apparent KD of MS2 coat protein: 44.9 nM
Input ligand: none
  apparent KD of MS2 coat protein: 59.3 nM
